Molecular target: mitoribosomal protein uL12m (human (endogenous in HEK293S GnTI), UniProt P52815 37-198)
Experiment: cryo-EM structure; 150 nM 55S mitoribosomes incubated with 5 uM EF-G1mt and 1 mM GMPPCP at 37 °C for 5 min in HEPES polymix buffer; three classes (I, II, III) from one sample
Settings: both partners purified

binding result: binds
B1: human mitochondrial elongation factor G1 (natural protein)
chain: not shown
notes: also called EF-G1mt; source: E. coli BL21(DE3) (RIL), purified (Ni-NTA, cation exchange TSKgel SP-5PW)

— publication PMC7395135, “Structures of the human mitochondrial ribosome bound to EF-G1 reveal distinct features of mitochondrial translation elongation” (Nature Communications, 2020)
